Data published in paper PMC6555819, “Comprehensive study of nuclear receptor DNA binding provides a revised framework for understanding receptor specificity”.
Positions count from the first letter of the chain named.

B1: NRC3_random_hg19_369_o1 (dsDNA)
DNA 1: GCCAACCCTCTTTCATGTCTGTAAGGAGCTTACCTGGCGATTGACAGCGTAGAATGAAGG
DNA 2: CCTTCATTCTACGCTGTCAATCGCCAGGTAAGCTCCTTACAGACATGAAAGAGGGTTGGC
B2: NRC3_random_hg19_320_o1 (dsDNA)
DNA 1: GCCACACTTGCAGAGGAGAAAGGAGTTTGGAAAGCCGCGATTGACAGCGTAGAATGAAGG
DNA 2: CCTTCATTCTACGCTGTCAATCGCGGCTTTCCAAACTCCTTTCTCCTCTGCAAGTGTGGC
B3: NRC3_wobSeed13_DR0_A15C_o1 (dsDNA)
DNA 1: GCCGTCCAAGGTCACGGTCAGTGAAAGAGACTCGAAGCGATTGACAGCGTAGAATGAAGG
DNA 2: CCTTCATTCTACGCTGTCAATCGCTTCGAGTCTCTTTCACTGACCGTGACCTTGGACGGC
B4: NRC3_wobSeed22_DR0_G13C_o1 (dsDNA)
DNA 1: GCTTACCAAGGTCAAGGTCGTTGATCCCTCTGTAGAGCGATTGACAGCGTAGAATGAAGG
DNA 2: CCTTCATTCTACGCTGTCAATCGCTCTACAGAGGGATCAACGACCTTGACCTTGGTAAGC
B5: NRC3_wobSeed134_DR5_T8G_o1 (dsDNA)
DNA 1: GCGCTGCGAGGTCAACTGATGGTCAGCTAAAGCTCGGCGATTGACAGCGTAGAATGAAGG
DNA 2: CCTTCATTCTACGCTGTCAATCGCCGAGCTTTAGCTGACCATCAGTTGACCTCGCAGCGC
B6: NRC3_wobSeed23_DR0_G12T_o1 (dsDNA)
DNA 1: GCGGAACGAGGTCAAGTTGATAGCAGAGTTTGATGGGCGATTGACAGCGTAGAATGAAGG
DNA 2: CCTTCATTCTACGCTGTCAATCGCCCATCAAACTCTGCTATCAACTTGACCTCGTTCCGC
B7: NRC3_wobSeed87_DR3_G10A_o1 (dsDNA)
DNA 1: GCCGAACTAAGTCATCCAGGACAGTGAATACATTGAGCGATTGACAGCGTAGAATGAAGG
DNA 2: CCTTCATTCTACGCTGTCAATCGCTCAATGTATTCACTGTCCTGGATGACTTAGTTCGGC
B8: NRC3_wobSeed135_DR5_G10A_o1 (dsDNA)
DNA 1: GCCGAACTAAGTCATTGACAGGACAGTGAATAGTAAGCGATTGACAGCGTAGAATGAAGG
DNA 2: CCTTCATTCTACGCTGTCAATCGCTTACTATTCACTGTCCTGTCAATGACTTAGTTCGGC
B9: NRC3_random_hg19_482_o1 (dsDNA)
DNA 1: GCCATCCTGTAAGACACTTCCTCTAAGAAATGGCTAGCGATTGACAGCGTAGAATGAAGG
DNA 2: CCTTCATTCTACGCTGTCAATCGCTAGCCATTTCTTAGAGGAAGTGTCTTACAGGATGGC
B10: NRC3_random_hg19_440_o1 (dsDNA)
DNA 1: GCGAAGGAGTTCTTATCTGGCCAGTTCCCATCCTGTGCGATTGACAGCGTAGAATGAAGG
DNA 2: CCTTCATTCTACGCTGTCAATCGCACAGGATGGGAACTGGCCAGATAAGAACTCCTTCGC
B11: NRC3_wobSeed29_DR1_T22C_o1 (dsDNA)
DNA 1: GCGCTTACGGGTCAAAGGTTACAGCATGAATAGAATGCGATTGACAGCGTAGAATGAAGG
DNA 2: CCTTCATTCTACGCTGTCAATCGCATTCTATTCATGCTGTAACCTTTGACCCGTAAGCGC
B12: NRC3_wobSeed49_DR2_C7G_o1 (dsDNA)
DNA 1: GCCAAAGTAGGTCAAGAGGTCAAAGTCCGCTTCCCGGCGATTGACAGCGTAGAATGAAGG
DNA 2: CCTTCATTCTACGCTGTCAATCGCCGGGAAGCGGACTTTGACCTCTTGACCTACTTTGGC
B13: NRC3_wobSeed26_DR1_T8C_o1 (dsDNA)
DNA 1: GCTCTAGCTGGTCAAAGGTCACACACTCGAAATGCGGCGATTGACAGCGTAGAATGAAGG
DNA 2: CCTTCATTCTACGCTGTCAATCGCCGCATTTCGAGTGTGTGACCTTTGACCAGCTAGAGC
B14: NRC3_wobSeed97_DR4_T28C_o1 (dsDNA)
DNA 1: GCCAAACTAGGTCACGAAAGGTCAAAGCCGAATGACGCGATTGACAGCGTAGAATGAAGG
DNA 2: CCTTCATTCTACGCTGTCAATCGCGTCATTCGGCTTTGACCTTTCGTGACCTAGTTTGGC
B15: NRC3_wobSeed73_DR3_G26C_o1 (dsDNA)
DNA 1: GCCAAACTAGGTCACAGAGGTCAAACTCCGTGCGTAGCGATTGACAGCGTAGAATGAAGG
DNA 2: CCTTCATTCTACGCTGTCAATCGCTACGCACGGAGTTTGACCTCTGTGACCTAGTTTGGC
B16: NRC3_wobSeed46_DR1_G13T_o1 (dsDNA)
DNA 1: GCTTACCAAGGTTAAAGGTCGTTGATGCACGCCTTGGCGATTGACAGCGTAGAATGAAGG
DNA 2: CCTTCATTCTACGCTGTCAATCGCCAAGGCGTGCATCAACGACCTTTAACCTTGGTAAGC
B17: NRC3_wobSeed44_DR1_T13C_o1 (dsDNA)
DNA 1: GCTGAATGAGGTCAAAGATCAGGGAACGTGGCGTCGGCGATTGACAGCGTAGAATGAAGG
DNA 2: CCTTCATTCTACGCTGTCAATCGCCGACGCCACGTTCCCTGATCTTTGACCTCATTCAGC
B18: NRC3_wobSeed109_DR4_G25T_o1 (dsDNA)
DNA 1: GCCGTCCAAGGTCATAGGAGGTCATTGAAGACAGATGCGATTGACAGCGTAGAATGAAGG
DNA 2: CCTTCATTCTACGCTGTCAATCGCATCTGTCTTCAATGACCTCCTATGACCTTGGACGGC
B19: NRC3_wobSeed34_DR1_A15C_o1 (dsDNA)
DNA 1: GCATCGAAAGGTCGCAGGTGAGTATACCCACCCGAAGCGATTGACAGCGTAGAATGAAGG
DNA 2: CCTTCATTCTACGCTGTCAATCGCTTCGGGTGGGTATACTCACCTGCGACCTTTCGATGC
B20: NRC3_wobSeed74_DR3_C15T_o1 (dsDNA)
DNA 1: GCTCTAGTTGGTCATGGAGGTCACACACGACGGGTAGCGATTGACAGCGTAGAATGAAGG
DNA 2: CCTTCATTCTACGCTGTCAATCGCTACCCGTCGTGTGTGACCTCCATGACCAACTAGAGC
B21: NRC3_wobSeed122_DR5_G10T_o1 (dsDNA)
DNA 1: GCGCTAGTTTGTCAGTAAAAGGTCACACACCGGTCGGCGATTGACAGCGTAGAATGAAGG
DNA 2: CCTTCATTCTACGCTGTCAATCGCCGACCGGTGTGTGACCTTTTACTGACAAACTAGCGC
B22: NRC3_wobSeed73_DR3_C22T_o1 (dsDNA)
DNA 1: B15 DNA 1 with C22T, C26G
DNA 2: B15 DNA 2 with G35C, G39A
B23: NRC3_wobSeed93_DR3_T26A_o1 (dsDNA)
DNA 1: GCAGTCAAAGTTCATCTAGGTAACGAAAGATATGCTGCGATTGACAGCGTAGAATGAAGG
DNA 2: CCTTCATTCTACGCTGTCAATCGCAGCATATCTTTCGTTACCTAGATGAACTTTGACTGC
B24: NRC3_wobSeed100_DR4_C12G_o1 (dsDNA)
DNA 1: GCCCTACTGGGGCACGAAAGGTCATTGATTCAGTGAGCGATTGACAGCGTAGAATGAAGG
DNA 2: CCTTCATTCTACGCTGTCAATCGCTCACTGAATCAATGACCTTTCGTGCCCCAGTAGGGC
B25: NRC3_wobSeed2_DR0_C4T_o1 (dsDNA)
DNA 1: GCCTTAGTTGGTCAAGGTCACACACGCTATAGGTACGCGATTGACAGCGTAGAATGAAGG
DNA 2: CCTTCATTCTACGCTGTCAATCGCGTACCTATAGCGTGTGTGACCTTGACCAACTAAGGC
B26: NRC3_wobSeed122_DR5_C4A_o1 (dsDNA)
DNA 1: B21 DNA 1 with C4A, T10G
DNA 2: B21 DNA 2 with A51C, G57T
B27: NRC3_wobSeed133_DR5_T23C_o1 (dsDNA)
DNA 1: GCCGTCCAAGGTCAATGCTAGGCCAGTGAAAGCATTGCGATTGACAGCGTAGAATGAAGG
DNA 2: CCTTCATTCTACGCTGTCAATCGCAATGCTTTCACTGGCCTAGCATTGACCTTGGACGGC
B28: NRC3_wobSeed34_DR1_G6T_o1 (dsDNA)
DNA 1: B19 DNA 1 with G6T, C15A
DNA 2: B19 DNA 2 with G46T, C55A

How the values were obtained:
RARb:RXRa = RARb:RXRa (Homo sapiens, UniProt P10826;P19793 full;full); experiment: no ligand; PBM; 270 nM : 90 nM RXRa; PBS pH 7.4, 2% milk, 0.02% Triton X-100, 1 mM DTT, BSA, 0.4 mg/ml salmon testes DNA; conditions: tags: His kept;His cleaved; copies: 1;1; label: surface-attached array probe
Outline: (§1)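 Ligand-free nuclear receptor dimers were bound for 1 h to custom Agilent 4×180K protein-binding microarrays. Detection used antibodies against each partner (one per run). Binding z-scores rest on regression-normalized fluorescence, with random background probes as the reference.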

FXR:RXRa = FXR:RXRa (Homo sapiens, UniProt Q96RI1;P19793 full;full); experiment: as above; conditions: tags: His kept;His cleaved; copies: 1;1; label: surface-attached array probe
Outline: as §1

RARg:RXRa = RARg:RXRa (Homo sapiens, UniProt P13631;P19793 full;full); experiment: as above; conditions: tags: His kept;His cleaved; copies: 1;1; label: surface-attached array probe
Outline: as §1

PPARa:RXRa = PPARa:RXRa (Homo sapiens, UniProt Q07869;P19793 full;full); experiment: as above; conditions: tags: GST kept;His cleaved; copies: 1;1; label: surface-attached array probe
Outline: as §1

RXRa = RXRa (Homo sapiens, UniProt P19793); experiment: no ligand; PBM; 180 nM; PBS pH 7.4, 2% milk, 0.02% Triton X-100, 1 mM DTT, BSA, 0.4 mg/ml salmon testes DNA; conditions: tags: His cleaved; chain copies: 2; label: surface-attached array probe
Sequence of RXRa (P19793 whole entry): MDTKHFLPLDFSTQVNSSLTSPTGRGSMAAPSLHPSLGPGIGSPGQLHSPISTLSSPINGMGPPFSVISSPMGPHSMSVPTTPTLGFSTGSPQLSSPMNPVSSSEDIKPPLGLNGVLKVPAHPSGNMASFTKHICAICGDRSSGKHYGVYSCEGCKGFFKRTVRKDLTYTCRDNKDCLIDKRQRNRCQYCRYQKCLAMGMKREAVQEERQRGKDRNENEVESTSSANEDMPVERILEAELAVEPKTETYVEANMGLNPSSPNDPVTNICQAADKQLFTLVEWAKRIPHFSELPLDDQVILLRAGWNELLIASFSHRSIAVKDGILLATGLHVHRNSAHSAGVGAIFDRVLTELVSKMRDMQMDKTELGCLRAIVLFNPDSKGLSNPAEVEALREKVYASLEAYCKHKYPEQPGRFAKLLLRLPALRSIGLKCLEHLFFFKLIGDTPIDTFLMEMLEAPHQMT

Sequence of RARb:RXRa (P10826 whole entry, chain 1 of 2): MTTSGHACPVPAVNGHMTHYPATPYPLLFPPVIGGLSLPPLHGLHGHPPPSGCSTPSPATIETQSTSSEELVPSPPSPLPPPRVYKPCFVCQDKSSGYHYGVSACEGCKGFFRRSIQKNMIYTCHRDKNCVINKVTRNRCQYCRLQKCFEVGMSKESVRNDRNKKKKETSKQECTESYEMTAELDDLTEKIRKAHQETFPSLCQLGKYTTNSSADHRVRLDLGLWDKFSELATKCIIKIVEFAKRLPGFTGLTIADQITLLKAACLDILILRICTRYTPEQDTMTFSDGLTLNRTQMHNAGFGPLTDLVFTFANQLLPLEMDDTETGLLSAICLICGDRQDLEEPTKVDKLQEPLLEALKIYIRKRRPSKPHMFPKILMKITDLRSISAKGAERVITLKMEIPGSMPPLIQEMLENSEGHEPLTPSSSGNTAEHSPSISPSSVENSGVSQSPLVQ
Sequence of RARb:RXRa (P19793 whole entry, chain 2 of 2): as the sequence (P19793 whole entry) above
Sequence of FXR:RXRa (Q96RI1 whole entry, chain 1 of 2): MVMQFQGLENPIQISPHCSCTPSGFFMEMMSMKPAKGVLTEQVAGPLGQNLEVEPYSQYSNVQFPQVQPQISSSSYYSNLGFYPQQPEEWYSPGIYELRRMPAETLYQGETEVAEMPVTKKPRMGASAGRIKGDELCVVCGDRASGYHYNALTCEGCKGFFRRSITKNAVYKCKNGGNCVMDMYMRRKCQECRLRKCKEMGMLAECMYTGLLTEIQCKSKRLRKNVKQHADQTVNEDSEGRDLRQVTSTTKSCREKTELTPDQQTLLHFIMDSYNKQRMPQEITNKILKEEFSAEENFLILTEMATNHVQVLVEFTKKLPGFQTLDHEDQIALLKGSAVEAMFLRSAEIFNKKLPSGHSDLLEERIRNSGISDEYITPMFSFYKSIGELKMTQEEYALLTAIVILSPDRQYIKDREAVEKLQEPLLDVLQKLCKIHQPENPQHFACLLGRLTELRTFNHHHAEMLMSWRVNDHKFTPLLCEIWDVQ
Sequence of FXR:RXRa (P19793 whole entry, chain 2 of 2): as the sequence (P19793 whole entry) above
Sequence of RARg:RXRa (P13631 whole entry, chain 1 of 2): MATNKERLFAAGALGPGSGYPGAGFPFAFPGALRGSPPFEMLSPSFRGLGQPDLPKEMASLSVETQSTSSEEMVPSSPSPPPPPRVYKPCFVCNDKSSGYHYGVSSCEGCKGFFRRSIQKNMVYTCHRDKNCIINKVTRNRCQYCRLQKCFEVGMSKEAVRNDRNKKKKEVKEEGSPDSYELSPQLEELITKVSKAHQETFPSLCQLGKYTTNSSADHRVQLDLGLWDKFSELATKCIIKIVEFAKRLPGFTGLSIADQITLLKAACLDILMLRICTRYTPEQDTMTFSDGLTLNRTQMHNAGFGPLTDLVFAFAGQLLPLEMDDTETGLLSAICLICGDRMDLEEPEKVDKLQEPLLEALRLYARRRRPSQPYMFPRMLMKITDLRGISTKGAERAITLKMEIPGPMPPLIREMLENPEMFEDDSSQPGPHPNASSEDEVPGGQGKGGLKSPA
Sequence of RARg:RXRa (P19793 whole entry, chain 2 of 2): as the sequence (P19793 whole entry) above
Sequence of PPARa:RXRa (Q07869 whole entry, chain 1 of 2): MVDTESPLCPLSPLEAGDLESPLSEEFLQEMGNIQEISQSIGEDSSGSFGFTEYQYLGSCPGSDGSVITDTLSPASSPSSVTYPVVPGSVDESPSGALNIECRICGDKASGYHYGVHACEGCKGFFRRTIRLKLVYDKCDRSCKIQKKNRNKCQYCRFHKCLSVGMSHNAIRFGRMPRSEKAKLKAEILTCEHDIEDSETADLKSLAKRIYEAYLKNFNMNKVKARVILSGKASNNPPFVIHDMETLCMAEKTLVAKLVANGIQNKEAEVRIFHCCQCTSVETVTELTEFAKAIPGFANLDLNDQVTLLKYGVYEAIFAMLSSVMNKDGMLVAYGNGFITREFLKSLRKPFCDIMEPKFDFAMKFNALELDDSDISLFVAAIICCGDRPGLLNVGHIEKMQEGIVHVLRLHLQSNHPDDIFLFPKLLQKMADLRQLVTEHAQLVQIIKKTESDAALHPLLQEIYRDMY
Sequence of PPARa:RXRa (P19793 whole entry, chain 2 of 2): as the sequence (P19793 whole entry) above

Binder	binding signal (RARb:RXRa)	binding signal (RXRa)	other results
B1	0.12 PBM z-score against 500 random probes		binding signal (FXR:RXRa): 0.38 PBM z-score against 500 random probes; binding signal (RARg:RXRa): -0.32 PBM z-score against 500 random probes
B2	-0.07 PBM z-score against 500 random probes		binding signal (PPARa:RXRa): -0.22 PBM z-score against 500 random probes; binding signal (FXR:RXRa): 0.28 PBM z-score against 500 random probes
B3	5.97 PBM z-score against 500 random probes		binding signal (FXR:RXRa): 8.3 PBM z-score against 500 random probes
B4	5.5 PBM z-score against 500 random probes		binding signal (FXR:RXRa): 7.79 PBM z-score against 500 random probes
B5	5.49 PBM z-score against 500 random probes		binding signal (FXR:RXRa): 7.7 PBM z-score against 500 random probes; binding signal (RARg:RXRa): 7.43 PBM z-score against 500 random probes
B6	5.45 PBM z-score against 500 random probes		binding signal (FXR:RXRa): 8.18 PBM z-score against 500 random probes
B7	0.37 PBM z-score against 500 random probes		binding signal (RARg:RXRa): 0.43 PBM z-score against 500 random probes
B8	0.2 PBM z-score against 500 random probes		binding signal (RARg:RXRa): 0.48 PBM z-score against 500 random probes
B9	-0.03 PBM z-score against 500 random probes		binding signal (RARg:RXRa): 0.13 PBM z-score against 500 random probes
B10	-0.36 PBM z-score against 500 random probes		binding signal (PPARa:RXRa): -0.35 PBM z-score against 500 random probes; binding signal (RARg:RXRa): -0.83 PBM z-score against 500 random probes
B11		9.84 PBM z-score against 500 random probes	
B12		8.95 PBM z-score against 500 random probes	
B13		8.94 PBM z-score against 500 random probes	
B14		8.92 PBM z-score against 500 random probes	
B15		8.89 PBM z-score against 500 random probes	
B16		7.99 PBM z-score against 500 random probes	
B17		7.98 PBM z-score against 500 random probes	
B18		7.89 PBM z-score against 500 random probes	
B19		5.33 PBM z-score against 500 random probes	
B20		5.28 PBM z-score against 500 random probes	
B21		5.24 PBM z-score against 500 random probes	
B22		5.19 PBM z-score against 500 random probes	
B23		5.16 PBM z-score against 500 random probes	
B24		5.1 PBM z-score against 500 random probes	
B25		5.06 PBM z-score against 500 random probes	
B26		4.99 PBM z-score against 500 random probes	
B27		4.95 PBM z-score against 500 random probes	
B28		4.9 PBM z-score against 500 random probes	
